Publication PMC10322149

Assays:
Homer3, Q9NSC5 = target: T1, Homer3, Q9NSC5; experiment: SEC-MALS; FPLC coupled with static light scattering; Superose 12 10/300 GL; 50 mM Tris pH 8.0, 100 mM NaCl, 1 mM EDTA, 1 mM DTT; Homer3 and Pi-Homer3 at 50 μM; conditions: remark: other sources report otherwise
T1 chain: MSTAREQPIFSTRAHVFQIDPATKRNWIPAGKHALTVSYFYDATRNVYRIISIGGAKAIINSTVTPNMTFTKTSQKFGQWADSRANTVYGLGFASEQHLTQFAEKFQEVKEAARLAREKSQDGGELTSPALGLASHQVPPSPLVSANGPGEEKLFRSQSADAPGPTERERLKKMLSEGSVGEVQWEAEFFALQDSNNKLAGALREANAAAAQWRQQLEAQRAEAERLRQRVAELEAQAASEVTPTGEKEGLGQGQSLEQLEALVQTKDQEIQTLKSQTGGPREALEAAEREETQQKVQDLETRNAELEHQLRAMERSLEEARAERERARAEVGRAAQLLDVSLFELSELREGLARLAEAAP

[1] = target: T2, Pi-Homer3 (Homer3 phosphorylated by CaMKIIα), Q9NSC5; experiment: as above; conditions: remark: other sources report otherwise
T2 chain: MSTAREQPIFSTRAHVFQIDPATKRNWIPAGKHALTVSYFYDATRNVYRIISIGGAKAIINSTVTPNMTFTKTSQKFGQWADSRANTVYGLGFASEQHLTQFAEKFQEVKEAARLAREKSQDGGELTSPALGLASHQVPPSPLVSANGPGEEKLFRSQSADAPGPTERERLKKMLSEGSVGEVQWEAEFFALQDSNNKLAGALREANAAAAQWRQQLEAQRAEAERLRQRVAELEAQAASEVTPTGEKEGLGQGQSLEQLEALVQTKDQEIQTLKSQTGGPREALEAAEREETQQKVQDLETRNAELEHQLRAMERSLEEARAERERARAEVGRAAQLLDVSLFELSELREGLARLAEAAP

| Binder | stoichiometry N (Homer3, Q9NSC5) | stoichiometry N [1] |
| --- | --- | --- |
| Homer3, Q9NSC5 1-361 (natural protein) MSTAREQPIFSTRAHVFQIDPATKRNWIPAGKHALTVSYFYDATRNVYRIISIGGAKAIINSTVTPNMTFTKTSQKFGQWADSRANTVYGLGFASEQHLTQFAEKFQEVKEAARLAREKSQDGGELTSPALGLASHQVPPSPLVSANGPGEEKLFRSQSADAPGPTERERLKKMLSEGSVGEVQWEAEFFALQDSNNKLAGALREANAAAAQWRQQLEAQRAEAERLRQRVAELEAQAASEVTPTGEKEGLGQGQSLEQLEALVQTKDQEIQTLKSQTGGPREALEAAEREETQQKVQDLETRNAELEHQLRAMERSLEEARAERERARAEVGRAAQLLDVSLFELSELREGLARLAEAAP | 4 |  |
| Pi-Homer3 (Homer3 phosphorylated by CaMKIIα), Q9NSC5 1-361 (natural protein, here or on the partner: phosphorylated by CaMKIIα at Ser residues in the central linker region (positions not given); phosphorylated by CaMKIIα at Ser residues in the central linker region (positions not given)) MSTAREQPIFSTRAHVFQIDPATKRNWIPAGKHALTVSYFYDATRNVYRIISIGGAKAIINSTVTPNMTFTKTSQKFGQWADSRANTVYGLGFASEQHLTQFAEKFQEVKEAARLAREKSQDGGELTSPALGLASHQVPPSPLVSANGPGEEKLFRSQSADAPGPTERERLKKMLSEGSVGEVQWEAEFFALQDSNNKLAGALREANAAAAQWRQQLEAQRAEAERLRQRVAELEAQAASEVTPTGEKEGLGQGQSLEQLEALVQTKDQEIQTLKSQTGGPREALEAAEREETQQKVQDLETRNAELEHQLRAMERSLEEARAERERARAEVGRAAQLLDVSLFELSELREGLARLAEAAP |  | 4 |
